Measurements reported in a protein production outcome set (Wang et al. 2014).

Assay: label from the status in PepcDB records

Row | Sequence | protein production
1 | MLAGGSLPSLAPDLVRDLIATAADISLLVSQEGVVREVMANPHHPSFGQLSEWEGRPLEEVLTAESVAKFRLRSEGLEPGRGSVAVELNHIDPRSFEFPIRYILHRLPADRSILMLGRDLRPIAEVQQQLVAAQLAMERDYETQREMETRYRVVLDVSRDPMVLVSMSTGRIVDLNSAAGLLLGGVRQDLLGAAIAQEFEGRRRGEFMETMTNLAATESAAPVEVLARRSQKRLLVVPRVFRAAGERLLLCQIDPADATQPVGDELSENLARLYHEGVDGIVFSDADGTIRGANEAFLNMTDSSSLAAIRGRSIADFLARGSVDLRVLIDSVRRTGQLRLYATRLTTDFAGQIAAEISATWLDDRERPLLVLVVRDTSRADTMRRPVPATGVIDEPARNVMELVGNSTLKDIVAETTDVVEKMCIETALELTRNNRVAAAEMLSLSRQSLYVKLRKFGLLNKDE | failed
2 | ALGVGRSGAMDQTALSQANRIVGNPDHAAVIEILNGGLKLKVLQSTVVAVTGAASHIGVSYAGQAQVKVPDYSPIALDCGDLLYIDSPHAGLRHYLAIRGGIKTEKILGSASFDTLAELGTPPLKPHDFIYSAELSVGSVLLHEKCAQQLPKIGDVVEVDVILGPRTDWFEPESLTQFFQQQWLVTQESNRIGLRLSAGLPLKRQIHGELASEGTCTGALQIPPNGQPVLFMNDHPLTGGYPVLGAIAIDHLDRVAQIPPGCLIQFRQKSEILDLDKEST | failed
3 | MTDRDSLEPISRDELQARVAAGSVLVLDVRPAMEYAAGHLPGAVSIPLDELAERLDELPSGIDIVACCRGPYCVYAYDALELLRPNGFSARRLDGGFSEWLAADLPVVRTLEHHHHHH | not failed
4 | MHLRLRTKNGLITITVSQQCTIRELSEEIERKTGIEVAKQKILYGFPQRELRADADKPVESVLQSGDSLTVDKLSAETEQERTVESSPASTENAYVRRKVPDDNSCLFHAICYVFRSGSVAQLRHIISETVRLNPDLYTEAFLGKSNHEYSRWILLPETWGGAIELSILSKYFQTEISVFDIQTLRLDRYGEAENYEERVFLLYDGIHYDPIARAFLGASREYDVTVFKIWDNEALVGAKSVAEEANKNRQYTDLASFTLMCRNCGAKLKGETSAVEHAKQTGHTNFTEA | failed
5 | MMTFNLREQQKRLQARMDELRAEIAFAQKGEKPWPYRSCLMREGRGYCEKHGEYHTHILVWSDRNGEDREEISCCPDCLIAEANDLTMELSSIKAEELTDNAGIALRFRDCEFDNYLEVNPGAARNLAACRRYAENWPDMLENGTSLVMTGSCGTGKNHLAVAMAKHIIRNYLASVEITDVMRLTRAVKNCWRNDSEKTADEVIERYASMDLLIIDEVGVQFGSAAEMAILQEIINARYESILPTILISNLSPEELWAFISPRIADRITDGGRNWLSFNWPSYRSRIRGVAALEHHHHHH | failed
6 | MSLSVKILFKNATVFPITSRPFKGDVLVSNGKVEKVGENIEDPDAEIVDLTGKFLFPGFVDAHSHIGLFEEGVGYYYSDGNEATDPVTPHVKALDGFNPQDPAIERALAGGVTSVMIVPGSANPVGGQGSVIKFRSIIVEECIVKDPAGLKMAFGENPKRVYGERKQTPSTRMGTAGVIRDYFTKVKNYMKKKELAQKEGKEFTETDLKMEVGEMVLRKKIPARMHAHRADDILTAIRIAEEFGFNLVIEHGTEAYKISKVLAEKKIPVVVGPLLTFRTKLELKDLTMETIAKLLKDGVLIALMCDHPVIPLEFATVQAATAMRYGAKEEDLLKILTVNPAKILGLEDRIGSIEPGKDADLVVWSGHPFDMKSVVERVYIDGVEVFRREGHHHHHH | not failed
7 | MSLSDDSTFGDATFVVLDFETTGLDPQVDEIIEIGAVKIQGGQIVDEYHTLIKPSREISRKSSEITGITQEMLENKRSIEEVLPEFLGFLEDSIIVAHNANFDYRFLRLWIKKVMGLDWERPYIDTLALAKSLLKLRSYSLDSVVEKLGLGPFRHHRALDDARVTAQVFLRFVEMMKKEGHHHHHH | not failed
8 | EAHRVLFGFVPETKEELQVMPGNIVFVLKKGNDNWATVMFNGQKGLVPCNYLEPV | not failed
9 | MKNTKFSIKKIKNISNDPKVVHTKGALLEKMGKMESAIELYKSAALDNYVKSQYTLGNIYESKKQFKEAEKWYSMAYKSGSEDAAFDLGNMYYKLDGYEYAIYWYEKIANLGYLQAQNNLGVCHFKMKDFVRCEKWLKTAADKNLGKACFNLGVLYTFLEKDDEAYEYYKKGSVLLDDDAKYNLAILNGKKKDNKSTVSLYKQLYKSGHMKGCFNLGMIMEINDNLEDAEKYYKKSADRDDVKSEYRLAYVYDRKEELGDAIYYYEKAIEKNHTLSKYRLANLYNRENEIEKAKTYYKMAAEDDITEAKNNLAGIYFEEKDYENAIKYYEDAIAVGCKSSLENLGDLYYQNQDIEKAISYYSRIPNNVSCQIKLGNIYEDLNNIEEAISWYKKASENGDTRSSYRLGCIYESLGNTKNARKYFEMASSKNHMNARIHLGRIYFREGKLEESKMMFDTPANENNVYAQHMVGLIYDMFYKDYVNSKFWYEKARAQGCVESIYNLGQIYLKLNDDAEAEKYYKEGIKYGSKKCEYMLAGLYYKKSLDMYISLANEEYDNCEEIVEGFPNLNIDFDEVLIPPFKLQEEVIDEEEYVPIYILNIKESLDSMLEGLETEMIIDEEHDS | failed
10 | MKEITIALVGQPNVGKSSLINALSNAHLKVGNFAGVTVDKMEVGLIHKEHQITIIDLPGTYALNDFTTEEKVTKDFLEKGQYDLILNVVDSTNLERNLALSAQLLDTNKKMLLALNMWDEAQKEGIKINTEKLSKELGVVCVPTSARSKEDRLNTELLLDEIVRLYSQNTTNNENIKVPSQSFKESLKYSQSAQRIAQLVISENQQNASFEHTYKIDKILMHKRYGIFIFLGFMFIIFSLSFLIGGGVQKALETGFKFLSDGIKENVANEDLASLVGDGIIGGVGATVSFLPLIVVLYFGISLLETTGYMSRVAFLLDGILHKFGLHGKSFIPLITGFGCSVPAYMATRTLQNYNERLITLFVIGFMSCSARLPIYVLFVGSFFPSSSAGFVLFCIYILGAVVALVMAKLLKLSVFKGQTESFIMEMPKYRFPSWRMVYFSIYTKSLSYLKKAGTYILVGAILIWFMSQYPKSDAAMKAYKQESLLVNKDTTLSSEAKEEKLKELKTELDKKNLKNSIVGRGGAYLEKVFSPMDFDWRLSVSLVTGFMAKEVVVSTLGVLFSLGDQNEKSDAFRGILRKEVSVPSGIAFIVFVMFYIPCFAATITFGREAGGIKFVAYLFIFTTVVAYAFSLIAFYATQILV | failed
11 | MERIIQQTDYDALSCKLAAISVGYLPSSGLQRLSVDLSKKYTEWHRSYLITLKKFSRRAFGKVDKAMRSSFPVMNYGTYLRTVGIDAAILEFLVANEKVQVVNLGCGSDLRMLPLLQMFPHLAYVDIDYNESVELKNSILRESEILRISLGLSKEDTAKSPFLIDQGRYKLAACDLNDITETTRLLDVCTKREIPTIVISECLLCYMHNNESQLLINTIMSKFSHGLWISYDPIGGSQPNDRFGAIMQSNLKESRNLEMPTLMTYNSKEKYASRWSAAPNVIVNDMWEIFNAQIPESERKRLRSLQFLDELEELKVMQTHYILMKAQW | not failed
12 | MQDSFFSFLSSPINLLFLFVAFFLLFVTPWLWNIVNSAHNIHKLLDPLGIKKKENSLPVTGLLFLPLLLIIIFIEWFWPLANITLFPILASPYIKFNIIAVISVVILLILIQCDKKKSMELWVLAYAAVLYLLYLIIIMATVVVGMNAFPASHYIFAPESSMTINRTIIYGLLIAHLIFIWLTISLKFTWRLLLMILYTLALSFAYFSLIVS | failed
13 | MIPPSIRLTLRNLIVNTDPGTLLFLLGLPSFYLIVLGLMFQSIIPNVPFAGKDISYAQFLSPGVVAMQPFIAGSIGGSMLWSDRRWGMFEQLIVGPFHRIDYLLGIIYVSIIFSVGGAFLMFLVSYAITGFLVSYDINLLMIAVVLIVSSILFTSIFLVLSVFIRTIQTYNTVTMFVFFILDFASSAFYPINSRTPLGLRIVSYMNPLTYIVDAVRNMMFYKIGMQDYISLLIVVVLSGFFFLIALVSYGRARV | failed
14 | MREHFVNEFMAVLSNKLTEDALSIVYQSLTLFVSNYEISERNTEVVPYTGYLPECYETYFVTRKIEGMSMKSLELYNLVLKDFFFKLNKEICKISTNDIRVYLYKNQQERNLSNSTLDTKRTIIHAFFEWAANEGYIGSNPCRNIKPIKYERPKRKPLTGIELEKVRNACDNLKDKALLELFYSTGCRVTEMERLDISDIDFQTKEVLLFGKGDKHRISYLNAKAEIAIRNYLDSRNDNEEALFVSDRKPYGRLKKPAIEKRIRVLGEKSGIGRRLYPHLIRHTTATDGLDRGMPVEEVQQILGHVNIATTMIYAEVSRANVKNNHRKCIV | failed
15 | MLQSHIMAGNCTVKPARMTRAPYARHELKSTNSGCDESPAALERRVAELLLVADFGAVVGSILDPRQVCEVASSWLGETLGWQMLSVCCHDFSTGTMRGGAGRGRHLSKKRQEGATSTVFIAAAQKGLSDAADVRTIPFPDGSGTLSLSRQSLAESQYSDEFFGGVVENLARSLAAARECDRLKNLSMRDHLTGLYNRRVFEAMLEVEARKRTTKPFSLLLIDLDDFKRVNDTYGHGAGDQVLVAVAKMLRLSFRKSDVVSRYGGEEFGVLLPDTSQDSARVVAERFRQNVATLSLPVNKEKIMPTVSVGIASVTLRLGIEVADVIEEADRALYQAKVTGKNRVCSSLLGENS | failed
16 | MVVKVINKKQDKFYFKLGMFILIFLILGVSLLNIIGINVDKTYENGNGMYAHIVDYSLPWVKVANNKNTSENTYSIKNIILSAAGLDINKPENVISKEVSFLGEALPKSIKSECPNESFTLDDKDVVKSTSGSVQNEPLKNINENIYDPKLKKALDKSKPEILIYHSHTTEAYKPYPADSLNSTQNVCAVGDELVKELGEKYGIYAINDKTVHNVVDYNKSYTRSGETLDKYLKQYGDFKMIIDMHRDSDVPKSKVTARINGEDVAKFMFVMTRKNPHFDKNMALVNGLVSICNKDFPGIFNGIYYYDYGINYYNQQKSNNAFLLEVGSDINTIDEAKGTSKYLARIIAEYLNGKK | failed
17 | MRWNICVVGAGKIGQMIAALLKTSSNYSVTVADHDLAALAVLNRMGVATKQVDAKDEAGLAKALGGFDAVISAAPFFLTPIIAKAAKAAGAHYFDLTEDVAATNAVRALAEDSQT | not failed
18 | MKILTVNVHAWLEENQMEKIDILARTIAEKQYDVIAMQEVNQLMNNKIIFDDIREENYAWVLLETLQKYTDTDYYLHWSNSHIGFGKYNEGVAVITRHKIKAEDEFYCTFAQSVRTISARRIVSITINYEGQDIEFYSCHMNLPNCETEDMGKNIQTILNRTQNSNLKILMGDFNTDAIGNVAAYENILSQGLFDTYVMAEKKDDGITVDKSIHGWDNDKAKKRLDYIFSNKELKVKESKVIFNNKNKEIVSDHFGIEVKIEF | not failed
19 | MSSRCLGCGTKFDSEAGRPRCPACRWEPEEIGGIAAYAPQFANQGGGFEASYFKVLSELEATNFWFRSRNDLILWALRKYHPKFRSFLEIGCGTGFVLSGVTGKYPEAEIFGSEIFIEGLRFASQRLPNARLMQMDARAIPFAEEFEAIGAFDVLEHIEEDETVLQQMHAALKPKGTLLVTVPQHPWLWSPLDDYAHHCRRYTANELSRKVTAAGFTILRNTSFVSFLLPAMLASRLLSRNKSVDEIDVRTEMQLPSLLNNAFRWILRAESALIGTGFDFPLGGSRLLVARKM | failed
20 | MRIVPFGAAREVTGSAHLLLAGGRRVLLDCGMFQGKEEARNHAPFGFDPKEVDAVLLTHAHLDHVGRLPKLFREGYRGPVYATRATVLLMEIVLEDALKVMDEPFFGPEDVEEALGHLRPLEYGEWLRLGALSLAFGQAGHLPGSAFVVAQGEGRTLVYSGDLGNREKDVLPDPSLPPLADLVLAEGTYGDRPHRPYRETVREFLEILEKTLSQGGKVLIPTFAVERAQEILYVLYTHGHRLPRAPIYLDSPMAGRVLSLYPRLVRYFSEEVQAHFLQGKNPFRPAGLEVVEHTEASKALNRAPGPMVVLAGSGMLAGGRILHHLKHGLSDPRNALVFVGYQPQGGLGAEIIARPPAVRILGEEVPLRASVHTLGGFSGHAGQDELLDWLQGEPRVVLVHGEEEKLLALGKLLALRGQEVSLARFGEGVPV | not failed
